Data reported in US20260274896A1 (ICHIMARU PHARCOS, published 2026).
*1 amine or outer side, *2 acyl side, *3 side chain or, on linkers, in order; H or OH if unused. Bridges are numbered along the chain shown (N, C = ends). [ ]: non-standard residue; d: D form. TBMB = c1c(C[*:1])cc(C[*:3])cc1C[*:2]; NMeY = CN[C@@H](Cc1ccc(O)cc1)C(=O)O; pXylylene = c1cc(C[*:2])ccc1C[*:1]; Dap = NC[C@H](N)C(=O)O; Mpa = O=C(O)CCS; Sar = CNCC(=O)O

T1: Vasoactive intestinal peptide receptor 2 (VIPR2), human, on the human VIPR2-expressing cell line (Catalog No. … (human, UniProt P41587 24-438))
T1 construct: whole, on cells; also called VPAC2; VIPR2-expressing cells
T1 sequence (looked up): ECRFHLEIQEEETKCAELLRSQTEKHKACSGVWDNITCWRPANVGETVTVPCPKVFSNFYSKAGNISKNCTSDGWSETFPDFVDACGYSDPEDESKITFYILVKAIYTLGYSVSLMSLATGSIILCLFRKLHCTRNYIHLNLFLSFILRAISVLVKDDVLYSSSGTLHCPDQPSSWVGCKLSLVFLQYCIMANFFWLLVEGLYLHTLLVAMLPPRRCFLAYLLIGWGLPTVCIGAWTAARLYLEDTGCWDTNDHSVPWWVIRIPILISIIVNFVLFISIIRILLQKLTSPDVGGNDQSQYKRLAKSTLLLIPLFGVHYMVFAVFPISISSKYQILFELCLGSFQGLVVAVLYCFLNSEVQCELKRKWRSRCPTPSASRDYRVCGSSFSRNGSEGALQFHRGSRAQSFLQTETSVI

B1: Seq-5 (peptide)
peptide: XYLPKYLCDLI
modifications: Mpa at position 1; NmeTyr at position 2; thioether bridge via DBoXy (1,2-bis(bromomethyl)benzene) linker (1-8); side-chain amide(5-9) between Lys5 and Asp9; C-terminal amide (NH2)
notes: Synthetic bicyclic peptide
B2: Seq-7 (peptide)
peptide: [Mpa][NMeY]LPKYLCDLI-NH2
modifications: linker 1-8 via pXylylene; lactam 5-9
SMILES: CC[C@H](C)[C@H](NC(=O)[C@H](CC(C)C)NC(=O)[C@@H]1CC(=O)NCCCC[C@@H]2NC(=O)[C@@H]3CCCN3C(=O)[C@H](CC(C)C)NC(=O)[C@H](Cc3ccc(O)cc3)N(C)C(=O)CCSCc3ccc(cc3)CSC[C@H](NC(=O)[C@H](CC(C)C)NC(=O)[C@H](Cc3ccc(O)cc3)NC2=O)C(=O)N1)C(N)=O
notes: Synthetic bicyclic peptide
B3: Seq-6 (peptide)
peptide: XYLPKYLCDLI
modifications: Mpa at position 1; NmeTyr at position 2; thioether bridge via DBmXy (1,3-bis(bromomethyl)benzene) linker (1-8); side-chain amide(5-9) between Lys5 and Asp9; C-terminal amide (NH2)
notes: Synthetic bicyclic peptide
B4: Seq-4 (peptide)
peptide: XYLPKYLCDLI
modifications: Mpa at position 1; NmeTyr at position 2; thioether bridge via DIHex (1,6-diiodohexane) linker (1-8); side-chain amide(5-9) between Lys5 and Asp9; C-terminal amide (NH2)
notes: Synthetic bicyclic peptide
B5: Seq-9 (peptide)
peptide: [Mpa][NMeY]L[Sar]CYLC[Dap]LI-NH2
modifications: linker 1-5-8 via TBMB
SMILES: CC[C@H](C)[C@H](NC(=O)[C@H](CC(C)C)NC(=O)[C@H](CN)NC(=O)[C@@H]1CSCc2cc3cc(c2)CSC[C@H](NC(=O)CN(C)C(=O)[C@H](CC(C)C)NC(=O)[C@H](Cc2ccc(O)cc2)N(C)C(=O)CCSC3)C(=O)N[C@@H](Cc2ccc(O)cc2)C(=O)N[C@@H](CC(C)C)C(=O)N1)C(N)=O
notes: Synthetic bicyclic peptide
B6: VIpep-3 (peptide)
peptide: Ac-CPPYLPRRLCTLLLRS-OH
modifications: disulfide 1-10
SMILES: CC(=O)N[C@H]1CSSC[C@@H](C(=O)N[C@H](C(=O)N[C@@H](CC(C)C)C(=O)N[C@@H](CC(C)C)C(=O)N[C@@H](CC(C)C)C(=O)N[C@@H](CCCNC(=N)N)C(=O)N[C@@H](CO)C(=O)O)[C@@H](C)O)NC(=O)[C@H](CC(C)C)NC(=O)[C@H](CCCNC(=N)N)NC(=O)[C@H](CCCNC(=N)N)NC(=O)[C@@H]2CCCN2C(=O)[C@H](CC(C)C)NC(=O)[C@H](Cc2ccc(O)cc2)NC(=O)[C@@H]2CCCN2C(=O)[C@@H]2CCCN2C1=O
notes: also called Vlpep-3
B7: Seq-8 (peptide)
peptide: [Mpa][NMeY]L[Sar]CYLCSLI-NH2
modifications: linker 1-5-8 via TBMB
SMILES: CC[C@H](C)[C@H](NC(=O)[C@H](CC(C)C)NC(=O)[C@H](CO)NC(=O)[C@@H]1CSCc2cc3cc(c2)CSC[C@H](NC(=O)CN(C)C(=O)[C@H](CC(C)C)NC(=O)[C@H](Cc2ccc(O)cc2)N(C)C(=O)CCSC3)C(=O)N[C@@H](Cc2ccc(O)cc2)C(=O)N[C@@H](CC(C)C)C(=O)N1)C(N)=O
notes: Synthetic bicyclic peptide
B8: Seq-10 (peptide)
peptide: Ac-CPPYLPKYLCDLI-NH2
modifications: disulfide 1-10; lactam 7-11
SMILES: CC[C@H](C)[C@H](NC(=O)[C@H](CC(C)C)NC(=O)[C@@H]1CC(=O)NCCCC[C@@H]2NC(=O)[C@@H]3CCCN3C(=O)[C@H](CC(C)C)NC(=O)[C@H](Cc3ccc(O)cc3)NC(=O)[C@@H]3CCCN3C(=O)[C@@H]3CCCN3C(=O)[C@@H](NC(C)=O)CSSC[C@H](NC(=O)[C@H](CC(C)C)NC(=O)[C@H](Cc3ccc(O)cc3)NC2=O)C(=O)N1)C(N)=O
notes: Synthetic bicyclic peptide
B9: Seq-3 (peptide)
peptide: XYLPKYLCDLI
modifications: Mpa at position 1; NmeTyr at position 2; thioether bridge via DIPen (1,5-diiodopentane) linker (1-8); side-chain amide(5-9) between Lys5 and Asp9; C-terminal amide (NH2)
notes: Synthetic bicyclic peptide
B10: Seq-1 (peptide)
peptide: [Mpa]PPYLPKYLCDLI-NH2
modifications: disulfide 1-10; lactam 7-11
SMILES: CC[C@H](C)[C@H](NC(=O)[C@H](CC(C)C)NC(=O)[C@@H]1CC(=O)NCCCC[C@@H]2NC(=O)[C@@H]3CCCN3C(=O)[C@H](CC(C)C)NC(=O)[C@H](Cc3ccc(O)cc3)NC(=O)[C@@H]3CCCN3C(=O)[C@@H]3CCCN3C(=O)CCSSC[C@H](NC(=O)[C@H](CC(C)C)NC(=O)[C@H](Cc3ccc(O)cc3)NC2=O)C(=O)N1)C(N)=O
notes: Synthetic bicyclic peptide derived from VIpep-3
B11: Seq-2 (peptide)
peptide: XYLPKYLCDLI
modifications: Mpa at position 1; NmeTyr (N-methyl-Tyr) at position 2; thioether bridge via DIBut (1,4-diiodobutane) linker (1-8); side-chain amide(5-9) between Lys5 and Asp9; C-terminal amide (NH2)
notes: Synthetic bicyclic peptide

Legend:
[1] = molecular target: T1, Vasoactive intestinal peptide receptor …; assay: summary of the Examples (binding to VIPR2-expressing cells)
[2] = molecular target: T1, Vasoactive intestinal peptide receptor …; assay: competitive cell-based ELISA on human VIPR2-expressing cells; competitor Biotin-VIpep-3 (1000 nM), N=4
Procedure: (§1) To confirm the binding activity of the amino acid substituted peptides to VIPR2, a competitive binding assay was constructed using the cell-based ELISA method shown in FIG. 3. The following is a brief description of this cell-based ELISA method. Human VIPR2-expressing cell line (Catalog No. HTS079RTA, manufactured by EUROFINS) was spread in a 96-well plate using the culture medium provided by the manufacturer, and cultured overnight at 37° C. in a CO₂ incubator. After washing the plates with HBSS containing 0.1% BSA, the mixtures containing Biotin-VIpep-3 (1000 nM) and any concentration of amino acid substituted peptide or VIpep-3 were prepared and added at 50 μL/well. After reaction on ice for 60 minutes, the plate was washed with 0.1% BSA containing HBSS. Biotin-VIpep-3 bound to VIPR2-expressing cells adhering to the plate was detected with SA-HRP (catalog no. ab7403, Abcam). For HRP quantification, SuperSignal ELISA Pico Chemiluminescent Substrate (Catalog No. 37070, ThermoFisher) was used to measure chemiluminescence values. […] In other words, the binding activity of amino acid substituted peptides and VIpep-3 to VIPR2 is detected as a competitive inhibitory activity against Biotin-VIpep-3 binding. […] Then, using the 50% inhibitory activity value of VIpep-3 as 1, the relative inhibitory activity values of the amino acid-substituted peptides were calculated.

[3] = molecular target: T1, Vasoactive intestinal peptide receptor …; assay: competitive cell-based ELISA on human VIPR2-expressing cells; competitor Biotin-VIpep-3 (1000 nM)
Procedure: as §1

Binder | binding result [1] | other results
B1 | binds | 
B2 | binds | 
B3 | binds | 
B4 | binds | 
B5 |  | binding result [2]: binds
B6 |  | binding result [3]: binds
B7 |  | binding result [2]: binds
B8 | binds | 
B9 | binds | 
B10 | binds | 
B11 | binds | 
